Laboratory results: patent US20260167699A1 (Chugai, published 2026)

molecular target: T1, FcγRIIIa extracellular domain, C-terminal His tag (human, UniProt P08637 17-208); experiment: SPR, binding activity relative to GpH7-A5/GpH7-B3/GpL16-k0 (=100)
T1 construct: extracellular domain; also called 3a
T1 sequence (P08637 other isoform, or with tags, fused parts or gaps): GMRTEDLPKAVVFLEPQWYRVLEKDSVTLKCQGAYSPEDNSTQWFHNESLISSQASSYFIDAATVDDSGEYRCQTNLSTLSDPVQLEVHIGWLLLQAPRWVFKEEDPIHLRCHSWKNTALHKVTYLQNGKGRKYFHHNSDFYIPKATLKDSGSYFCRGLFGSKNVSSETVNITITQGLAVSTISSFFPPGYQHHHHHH

Binder	He/Con 3a [%]
GpH7-A5/GpH7-B3 variant Y296_07I/GpL16-k0 (antibody, human IgG1, kappa, He Ab; copies: 1 + 1 + 2) heavy 1: not shown heavy 2: not shown light: DIVMTQSPLSLPVTPGEPASISCQASESLVHSNRNTYLHWYLQKPGQSPQLLIYKVSNRFSGVPDRFSGSGSGTDFTLKISRVEAEDVGVYYCSQNTHVPPTFGQGTKVEIERTVAAPSVFIFPPSDEQLKSGTASVVCLLNNFYPREAKVQWKVDNALQSGNSQESVTEQDSKDSTYSLSSTLTLSKADYEKHKVYACEVTHQGLSSPVTKSFNRGEC	75.8
GpH7-A5/GpH7-B3 variant Y296_19Q/GpL16-k0 (antibody, human IgG1, kappa, He Ab; copies: 1 + 1 + 2) heavy 1: not shown heavy 2: not shown light: DIVMTQSPLSLPVTPGEPASISCQASESLVHSNRNTYLHWYLQKPGQSPQLLIYKVSNRFSGVPDRFSGSGSGTDFTLKISRVEAEDVGVYYCSQNTHVPPTFGQGTKVEIERTVAAPSVFIFPPSDEQLKSGTASVVCLLNNFYPREAKVQWKVDNALQSGNSQESVTEQDSKDSTYSLSSTLTLSKADYEKHKVYACEVTHQGLSSPVTKSFNRGEC	71.4
GpH7-A5/GpH7-B3 variant Y296_12R/GpL16-k0 (antibody, human IgG1, kappa, He Ab; copies: 1 + 1 + 2) heavy 1: not shown heavy 2: not shown light: DIVMTQSPLSLPVTPGEPASISCQASESLVHSNRNTYLHWYLQKPGQSPQLLIYKVSNRFSGVPDRFSGSGSGTDFTLKISRVEAEDVGVYYCSQNTHVPPTFGQGTKVEIERTVAAPSVFIFPPSDEQLKSGTASVVCLLNNFYPREAKVQWKVDNALQSGNSQESVTEQDSKDSTYSLSSTLTLSKADYEKHKVYACEVTHQGLSSPVTKSFNRGEC	66.5
GpH7-A5/GpH7-B3 variant Y300_10E/GpL16-k0 (antibody, human IgG1, kappa, He Ab; copies: 1 + 1 + 2) heavy 1: not shown heavy 2: not shown light: DIVMTQSPLSLPVTPGEPASISCQASESLVHSNRNTYLHWYLQKPGQSPQLLIYKVSNRFSGVPDRFSGSGSGTDFTLKISRVEAEDVGVYYCSQNTHVPPTFGQGTKVEIERTVAAPSVFIFPPSDEQLKSGTASVVCLLNNFYPREAKVQWKVDNALQSGNSQESVTEQDSKDSTYSLSSTLTLSKADYEKHKVYACEVTHQGLSSPVTKSFNRGEC	113
GpH7-A5/GpH7-B3 variant Y300_11K/GpL16-k0 (antibody, human IgG1, kappa, He Ab; copies: 1 + 1 + 2) heavy 1: not shown heavy 2: not shown light: DIVMTQSPLSLPVTPGEPASISCQASESLVHSNRNTYLHWYLQKPGQSPQLLIYKVSNRFSGVPDRFSGSGSGTDFTLKISRVEAEDVGVYYCSQNTHVPPTFGQGTKVEIERTVAAPSVFIFPPSDEQLKSGTASVVCLLNNFYPREAKVQWKVDNALQSGNSQESVTEQDSKDSTYSLSSTLTLSKADYEKHKVYACEVTHQGLSSPVTKSFNRGEC	63.7
GpH7-A5/GpH7-B3 variant Y300_06M/GpL16-k0 (antibody, human IgG1, kappa, He Ab; copies: 1 + 1 + 2) heavy 1: not shown heavy 2: not shown light: DIVMTQSPLSLPVTPGEPASISCQASESLVHSNRNTYLHWYLQKPGQSPQLLIYKVSNRFSGVPDRFSGSGSGTDFTLKISRVEAEDVGVYYCSQNTHVPPTFGQGTKVEIERTVAAPSVFIFPPSDEQLKSGTASVVCLLNNFYPREAKVQWKVDNALQSGNSQESVTEQDSKDSTYSLSSTLTLSKADYEKHKVYACEVTHQGLSSPVTKSFNRGEC	106
GpH7-A5/GpH7-B3 variant Y300_09D/GpL16-k0 (antibody, human IgG1, kappa, He Ab; copies: 1 + 1 + 2) heavy 1: not shown heavy 2: not shown light: DIVMTQSPLSLPVTPGEPASISCQASESLVHSNRNTYLHWYLQKPGQSPQLLIYKVSNRFSGVPDRFSGSGSGTDFTLKISRVEAEDVGVYYCSQNTHVPPTFGQGTKVEIERTVAAPSVFIFPPSDEQLKSGTASVVCLLNNFYPREAKVQWKVDNALQSGNSQESVTEQDSKDSTYSLSSTLTLSKADYEKHKVYACEVTHQGLSSPVTKSFNRGEC	104
GpH7-A5/GpH7-B3 variant Y296_14T/GpL16-k0 (antibody, human IgG1, kappa, He Ab; copies: 1 + 1 + 2) heavy 1: not shown heavy 2: not shown light: DIVMTQSPLSLPVTPGEPASISCQASESLVHSNRNTYLHWYLQKPGQSPQLLIYKVSNRFSGVPDRFSGSGSGTDFTLKISRVEAEDVGVYYCSQNTHVPPTFGQGTKVEIERTVAAPSVFIFPPSDEQLKSGTASVVCLLNNFYPREAKVQWKVDNALQSGNSQESVTEQDSKDSTYSLSSTLTLSKADYEKHKVYACEVTHQGLSSPVTKSFNRGEC	60.7
GpH7-A5/GpH7-B3 variant Y300_07I/GpL16-k0 (antibody, human IgG1, kappa, He Ab; copies: 1 + 1 + 2) heavy 1: not shown heavy 2: not shown light: DIVMTQSPLSLPVTPGEPASISCQASESLVHSNRNTYLHWYLQKPGQSPQLLIYKVSNRFSGVPDRFSGSGSGTDFTLKISRVEAEDVGVYYCSQNTHVPPTFGQGTKVEIERTVAAPSVFIFPPSDEQLKSGTASVVCLLNNFYPREAKVQWKVDNALQSGNSQESVTEQDSKDSTYSLSSTLTLSKADYEKHKVYACEVTHQGLSSPVTKSFNRGEC	103
GpH7-A5/GpH7-B3 variant Y296_13S/GpL16-k0 (antibody, human IgG1, kappa, He Ab; copies: 1 + 1 + 2) heavy 1: not shown heavy 2: not shown light: DIVMTQSPLSLPVTPGEPASISCQASESLVHSNRNTYLHWYLQKPGQSPQLLIYKVSNRFSGVPDRFSGSGSGTDFTLKISRVEAEDVGVYYCSQNTHVPPTFGQGTKVEIERTVAAPSVFIFPPSDEQLKSGTASVVCLLNNFYPREAKVQWKVDNALQSGNSQESVTEQDSKDSTYSLSSTLTLSKADYEKHKVYACEVTHQGLSSPVTKSFNRGEC	58.1
GpH7-A5/GpH7-B3 variant Y300_02A/GpL16-k0 (antibody, human IgG1, kappa, He Ab; copies: 1 + 1 + 2) heavy 1: not shown heavy 2: not shown light: DIVMTQSPLSLPVTPGEPASISCQASESLVHSNRNTYLHWYLQKPGQSPQLLIYKVSNRFSGVPDRFSGSGSGTDFTLKISRVEAEDVGVYYCSQNTHVPPTFGQGTKVEIERTVAAPSVFIFPPSDEQLKSGTASVVCLLNNFYPREAKVQWKVDNALQSGNSQESVTEQDSKDSTYSLSSTLTLSKADYEKHKVYACEVTHQGLSSPVTKSFNRGEC	88.1
GpH7-A5/GpH7-B3 variant Y300_03V/GpL16-k0 (antibody, human IgG1, kappa, He Ab; copies: 1 + 1 + 2) heavy 1: not shown heavy 2: not shown light: DIVMTQSPLSLPVTPGEPASISCQASESLVHSNRNTYLHWYLQKPGQSPQLLIYKVSNRFSGVPDRFSGSGSGTDFTLKISRVEAEDVGVYYCSQNTHVPPTFGQGTKVEIERTVAAPSVFIFPPSDEQLKSGTASVVCLLNNFYPREAKVQWKVDNALQSGNSQESVTEQDSKDSTYSLSSTLTLSKADYEKHKVYACEVTHQGLSSPVTKSFNRGEC	83.8
GpH7-A5/GpH7-B3 variant Y296_08L/GpL16-k0 (antibody, human IgG1, kappa, He Ab; copies: 1 + 1 + 2) heavy 1: not shown heavy 2: not shown light: DIVMTQSPLSLPVTPGEPASISCQASESLVHSNRNTYLHWYLQKPGQSPQLLIYKVSNRFSGVPDRFSGSGSGTDFTLKISRVEAEDVGVYYCSQNTHVPPTFGQGTKVEIERTVAAPSVFIFPPSDEQLKSGTASVVCLLNNFYPREAKVQWKVDNALQSGNSQESVTEQDSKDSTYSLSSTLTLSKADYEKHKVYACEVTHQGLSSPVTKSFNRGEC	72.4
GpH7-A5/GpH7-B3 variant Y296_16H/GpL16-k0 (antibody, human IgG1, kappa, He Ab; copies: 1 + 1 + 2) heavy 1: not shown heavy 2: not shown light: DIVMTQSPLSLPVTPGEPASISCQASESLVHSNRNTYLHWYLQKPGQSPQLLIYKVSNRFSGVPDRFSGSGSGTDFTLKISRVEAEDVGVYYCSQNTHVPPTFGQGTKVEIERTVAAPSVFIFPPSDEQLKSGTASVVCLLNNFYPREAKVQWKVDNALQSGNSQESVTEQDSKDSTYSLSSTLTLSKADYEKHKVYACEVTHQGLSSPVTKSFNRGEC	69.1
GpH7-A5/GpH7-B3 variant Y296_18N/GpL16-k0 (antibody, human IgG1, kappa, He Ab; copies: 1 + 1 + 2) heavy 1: not shown heavy 2: not shown light: DIVMTQSPLSLPVTPGEPASISCQASESLVHSNRNTYLHWYLQKPGQSPQLLIYKVSNRFSGVPDRFSGSGSGTDFTLKISRVEAEDVGVYYCSQNTHVPPTFGQGTKVEIERTVAAPSVFIFPPSDEQLKSGTASVVCLLNNFYPREAKVQWKVDNALQSGNSQESVTEQDSKDSTYSLSSTLTLSKADYEKHKVYACEVTHQGLSSPVTKSFNRGEC	67.9
GpH7-A5/GpH7-B3 variant Y296_11K/GpL16-k0 (antibody, human IgG1, kappa, He Ab; copies: 1 + 1 + 2) heavy 1: not shown heavy 2: not shown light: DIVMTQSPLSLPVTPGEPASISCQASESLVHSNRNTYLHWYLQKPGQSPQLLIYKVSNRFSGVPDRFSGSGSGTDFTLKISRVEAEDVGVYYCSQNTHVPPTFGQGTKVEIERTVAAPSVFIFPPSDEQLKSGTASVVCLLNNFYPREAKVQWKVDNALQSGNSQESVTEQDSKDSTYSLSSTLTLSKADYEKHKVYACEVTHQGLSSPVTKSFNRGEC	53.3
GpH7-A5/GpH7-B3 variant Y300_01G/GpL16-k0 (antibody, human IgG1, kappa, He Ab; copies: 1 + 1 + 2) heavy 1: not shown heavy 2: not shown light: DIVMTQSPLSLPVTPGEPASISCQASESLVHSNRNTYLHWYLQKPGQSPQLLIYKVSNRFSGVPDRFSGSGSGTDFTLKISRVEAEDVGVYYCSQNTHVPPTFGQGTKVEIERTVAAPSVFIFPPSDEQLKSGTASVVCLLNNFYPREAKVQWKVDNALQSGNSQESVTEQDSKDSTYSLSSTLTLSKADYEKHKVYACEVTHQGLSSPVTKSFNRGEC	88.6
GpH7-A5/GpH7-B3 variant Y300_04F/GpL16-k0 (antibody, human IgG1, kappa, He Ab; copies: 1 + 1 + 2) heavy 1: not shown heavy 2: not shown light: DIVMTQSPLSLPVTPGEPASISCQASESLVHSNRNTYLHWYLQKPGQSPQLLIYKVSNRFSGVPDRFSGSGSGTDFTLKISRVEAEDVGVYYCSQNTHVPPTFGQGTKVEIERTVAAPSVFIFPPSDEQLKSGTASVVCLLNNFYPREAKVQWKVDNALQSGNSQESVTEQDSKDSTYSLSSTLTLSKADYEKHKVYACEVTHQGLSSPVTKSFNRGEC	100
GpH7-A5/GpH7-B3 variant Y300_08L/GpL16-k0 (antibody, human IgG1, kappa, He Ab; copies: 1 + 1 + 2) heavy 1: not shown heavy 2: not shown light: DIVMTQSPLSLPVTPGEPASISCQASESLVHSNRNTYLHWYLQKPGQSPQLLIYKVSNRFSGVPDRFSGSGSGTDFTLKISRVEAEDVGVYYCSQNTHVPPTFGQGTKVEIERTVAAPSVFIFPPSDEQLKSGTASVVCLLNNFYPREAKVQWKVDNALQSGNSQESVTEQDSKDSTYSLSSTLTLSKADYEKHKVYACEVTHQGLSSPVTKSFNRGEC	114
GpH7-A5/GpH7-B3 variant Y296_20W/GpL16-k0 (antibody, human IgG1, kappa, He Ab; copies: 1 + 1 + 2) heavy 1: not shown heavy 2: not shown light: DIVMTQSPLSLPVTPGEPASISCQASESLVHSNRNTYLHWYLQKPGQSPQLLIYKVSNRFSGVPDRFSGSGSGTDFTLKISRVEAEDVGVYYCSQNTHVPPTFGQGTKVEIERTVAAPSVFIFPPSDEQLKSGTASVVCLLNNFYPREAKVQWKVDNALQSGNSQESVTEQDSKDSTYSLSSTLTLSKADYEKHKVYACEVTHQGLSSPVTKSFNRGEC	127
GpH7-A5/GpH7-B3 variant Y296_09D/GpL16-k0 (antibody, human IgG1, kappa, He Ab; copies: 1 + 1 + 2) heavy 1: not shown heavy 2: not shown light: DIVMTQSPLSLPVTPGEPASISCQASESLVHSNRNTYLHWYLQKPGQSPQLLIYKVSNRFSGVPDRFSGSGSGTDFTLKISRVEAEDVGVYYCSQNTHVPPTFGQGTKVEIERTVAAPSVFIFPPSDEQLKSGTASVVCLLNNFYPREAKVQWKVDNALQSGNSQESVTEQDSKDSTYSLSSTLTLSKADYEKHKVYACEVTHQGLSSPVTKSFNRGEC	89
GpH7-A5/GpH7-B3 variant Y296_10E/GpL16-k0 (antibody, human IgG1, kappa, He Ab; copies: 1 + 1 + 2) heavy 1: not shown heavy 2: not shown light: DIVMTQSPLSLPVTPGEPASISCQASESLVHSNRNTYLHWYLQKPGQSPQLLIYKVSNRFSGVPDRFSGSGSGTDFTLKISRVEAEDVGVYYCSQNTHVPPTFGQGTKVEIERTVAAPSVFIFPPSDEQLKSGTASVVCLLNNFYPREAKVQWKVDNALQSGNSQESVTEQDSKDSTYSLSSTLTLSKADYEKHKVYACEVTHQGLSSPVTKSFNRGEC	76.8
